Test results published in publication PMC4633670, “Structural Characterization of a Newly Identified Component of α-Carboxysomes: The AAA+ Domain Protein CsoCbbQ” (Scientific Reports, 2015).

Columns and labels:
[1] = molecular target: Hexa-histidine-tagged H. nea CsoCbbQ (Hneap_0905) (Halothiobacillus neapolitanus); test: SEC; size exclusion data of recombinant CsoCbbQ (Supplementary Fig. 2); conditions not shown
[2] = molecular target: Hexa-histidine-tagged H. nea CsoCbbQ (Hneap_0905) (Halothiobacillus neapolitanus); test: crystal structure; His6-tagged CsoCbbQ crystallised with ATP in the mother liquor, ADP bound; 22 C, 0.1 M HEPES pH 7.5, 6% PEG-8000, 8% ethylene glycol; two molecules per asymmetric unit, hexamer by crystal symmetry
[3] = molecular target: the molecule itself; test: SEC; purified CsoCbbO/Q complex on Superdex 200 10/300 GL; 10 mM Tris-HCl pH 8.0, 100 mM NaCl, 0.25 ml/min; mass estimated against protein standards
[4] = molecular target: T1, N-terminal histidine-tagged CsoCbbO (Hneap_0910) (Halothiobacillus neapolitanus, UniProt D0KZ80 1-788); test: as above; settings: both partners purified
T1 construct: CsoCbbO, cso-associated CbbO of Halothiobacillus neapolitanus, locus tag Hneap_0910; 788 amino acids, VWA domain in its C-terminus; amplified from genomic DNA with primers from the ATG to the stop codon; Cloned into the BamHI and HindIII sites of pETDuet-1; It was insoluble when expressed alone in E. coli; also called HT-CbbO; hisCsoCbbO; not shown: His6, N-terminal, kept
T1 sequence (looked up): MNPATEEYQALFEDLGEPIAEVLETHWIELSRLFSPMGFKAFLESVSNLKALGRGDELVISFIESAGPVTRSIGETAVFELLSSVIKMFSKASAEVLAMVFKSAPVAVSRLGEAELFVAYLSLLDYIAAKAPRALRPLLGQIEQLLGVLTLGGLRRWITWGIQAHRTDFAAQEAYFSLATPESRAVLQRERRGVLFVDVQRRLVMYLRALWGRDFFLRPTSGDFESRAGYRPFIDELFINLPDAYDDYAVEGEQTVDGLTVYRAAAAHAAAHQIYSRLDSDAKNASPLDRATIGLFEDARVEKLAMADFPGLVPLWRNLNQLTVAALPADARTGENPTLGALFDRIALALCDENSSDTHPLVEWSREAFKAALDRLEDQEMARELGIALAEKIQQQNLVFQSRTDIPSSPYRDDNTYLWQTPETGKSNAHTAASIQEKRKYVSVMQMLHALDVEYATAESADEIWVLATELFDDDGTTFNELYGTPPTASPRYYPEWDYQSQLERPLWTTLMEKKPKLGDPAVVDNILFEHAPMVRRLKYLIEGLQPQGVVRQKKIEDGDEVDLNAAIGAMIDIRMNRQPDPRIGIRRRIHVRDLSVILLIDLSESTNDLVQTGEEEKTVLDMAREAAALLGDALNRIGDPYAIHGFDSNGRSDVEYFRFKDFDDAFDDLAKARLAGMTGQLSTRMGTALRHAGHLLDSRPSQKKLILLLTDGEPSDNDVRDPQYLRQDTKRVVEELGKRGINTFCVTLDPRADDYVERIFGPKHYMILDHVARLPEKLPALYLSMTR

Work on “Hexa-histidine-tagged H. nea CsoCbbQ (Hneap_0905) (enzyme)” yielded a stoichiometry N [1] of 6 and a stoichiometry N [2] of 6.

B1: non-His6-tagged CsoCbbQ (NT-CbbQ) (enzyme, Halothiobacillus neapolitanus, UniProt D0KZ75 1-267, looked up)
chain: MTQNADQYRVRKEPYYRAVQDEIELYRAGYEARIPMMLKGPTGCGKSRFVEHMAWKLNRPLITIACNEDMTASDLVGRYLLDKDGTRWQDGPLTVAARIGAICYLDEIVEARQDTIVVIHPLTDHRRVLPLEKKGELVEAHPDFQIVISYNPGYQSLMKDLKQSTKQRFGALDFDYPKPDIEAEIVSHEAGVDKDTAEKLVQIAQKARNLKGHGLDEGLSTRLLVYAGKLIAKGVDARAACTMTLVNPITDDVDMRDALDTVVKTFF
notes: CsoCbbQ of Halothiobacillus neapolitanus, locus tag Hneap_0905
For B1, the “stoichiometry N” value [3] was about 6 and the “stoichiometry N” value [4] was about 6.
